The values below come from US20110039779A1 (published 2011).

In assay [1] the target is T1, IGF-1R on MCF-7 cells (MCF-7S8, MCF7) (human, UniProt P08069 31-1367). The experiment in a line: cell-based or functional assay.
The target of assay [2] is T2, IGF-1R on SW480 cells (UniProt P08069 31-1367, limits assumed). The experiment in a line: cell-based or functional assay.
Assay [3] has as its target IGF-1R on L6 cells. The experiment in a line: cell-based or functional assay.
Assay [4] concerns the target Human IGF-1R (HIGF-1R), purified from BHK cells stably transfected with IGF-1R cDNA (human, UniProt P08069 31-1367). The experiment in a line: cell-based or functional assay.
Target sequence in this assay (P08069 31-1367 limits assumed): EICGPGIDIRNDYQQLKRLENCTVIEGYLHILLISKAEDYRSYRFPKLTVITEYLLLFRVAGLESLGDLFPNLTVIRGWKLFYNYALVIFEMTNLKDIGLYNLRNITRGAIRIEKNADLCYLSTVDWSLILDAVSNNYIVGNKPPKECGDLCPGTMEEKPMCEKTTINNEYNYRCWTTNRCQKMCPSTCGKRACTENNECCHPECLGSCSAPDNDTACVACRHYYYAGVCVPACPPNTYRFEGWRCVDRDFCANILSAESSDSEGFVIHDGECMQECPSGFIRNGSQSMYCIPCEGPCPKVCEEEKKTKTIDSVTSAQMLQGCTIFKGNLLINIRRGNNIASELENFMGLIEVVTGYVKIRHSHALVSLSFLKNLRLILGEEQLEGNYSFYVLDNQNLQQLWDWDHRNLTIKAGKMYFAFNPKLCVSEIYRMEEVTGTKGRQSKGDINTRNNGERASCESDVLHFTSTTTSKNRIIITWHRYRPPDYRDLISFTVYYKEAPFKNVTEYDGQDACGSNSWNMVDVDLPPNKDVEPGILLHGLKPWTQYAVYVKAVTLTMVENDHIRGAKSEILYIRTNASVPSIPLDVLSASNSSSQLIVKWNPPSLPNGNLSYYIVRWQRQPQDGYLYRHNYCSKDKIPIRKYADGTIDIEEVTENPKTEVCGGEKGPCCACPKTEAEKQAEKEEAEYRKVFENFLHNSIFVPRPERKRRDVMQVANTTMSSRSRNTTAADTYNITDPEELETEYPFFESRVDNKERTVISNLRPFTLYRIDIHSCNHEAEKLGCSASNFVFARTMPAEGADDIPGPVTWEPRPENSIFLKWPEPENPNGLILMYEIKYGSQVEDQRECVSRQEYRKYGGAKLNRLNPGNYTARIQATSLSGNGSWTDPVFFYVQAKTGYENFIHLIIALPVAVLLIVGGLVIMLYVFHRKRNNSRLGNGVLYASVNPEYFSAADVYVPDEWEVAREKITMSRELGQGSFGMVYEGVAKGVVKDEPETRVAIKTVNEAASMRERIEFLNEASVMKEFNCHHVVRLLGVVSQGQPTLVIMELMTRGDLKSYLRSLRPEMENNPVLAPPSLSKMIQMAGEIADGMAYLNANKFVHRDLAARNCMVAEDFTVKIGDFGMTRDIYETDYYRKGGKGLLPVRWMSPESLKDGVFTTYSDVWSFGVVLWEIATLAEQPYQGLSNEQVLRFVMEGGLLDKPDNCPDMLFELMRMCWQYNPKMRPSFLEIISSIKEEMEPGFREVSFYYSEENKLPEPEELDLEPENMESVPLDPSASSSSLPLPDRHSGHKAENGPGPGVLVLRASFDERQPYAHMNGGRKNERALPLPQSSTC
The target in assay [5] is T3, His-tagged soluble recombinant human IGF-IR (srhIGF-1R-his; R&D systems) (human, UniProt P08069 31-935).
T3 construct: extracellular domain; Bought protein; also called extra-cellular domain of IGF-1R; not shown: His tag
The experiment in a line: AlphaScreen competition with biotinylated hIGF-1 on srhIGF-1R-his. The protocol:
Binding Assays. […] Detection of the receptor ligand interaction was measured in an amplified luminescent proximity homogeneous assay (ALPHAScreen; BioSignal-Packard, Montreal). The assay was performed in 384-well Nunc™ white polystyrene microplates (Nalge Nunc International, Naperville, Ill.) with a final volume of 40 μL. […] Each concentration of competitor was assayed in duplicate. […] The second step of the assay was to add acceptor beads and the incubation continued for 0.5 hr. The final step was to add donor beads and the incubation continued for an additional 1 hr. […] Primary data were background corrected, normalized to buffer controls and then expressed as % Specific Binding. The data were fit to a four-parameter non-linear regression analysis (y=min+(max-min)/(1+10̂((log IC₅₀-x)*Hillslope))), which was used to determine IC₅₀ values. The Z′-factor for this assay is greater than 0.7 (Z′=1-(3σ++3σ−)/|μ+−μ−|) and the signal-to-background (SB) ratio was between 40 and 70.

Assay [6] has as its target IGF-1R on SW480, MCF-7 and MiaPaCa cells (human, UniProt P08069 31-1367). The experiment in a line: cell-based or functional assay.
Assay [7] deals with T4, Human IGF-1R (HIGF-1R), purified from BHK cells stably transfected with IGF-1R cDNA (human, UniProt P08069 31-1367).
T4 construct: mature; Detergent-solubilised whole receptor, not on cells; form 'mature' is my reading of 'purified from ... cells stably transfected with IGF-1R cDNA'; also called human insulin-like growth factor-1 receptor; purified HIGF-1R
The experiment in a line: competition with 125I-IGF-1 on purified HIGF-1R (PEG or SPA assay; the sentence does not say which).
T4 sequence (P08069 31-1367 limits assumed): as above

Assay [8] addresses T2, IGF-1R on SW480 cells. The experiment in a line: cell-based or functional assay. This is another data set of the same source.
Assay [9] has as its target T1, IGF-1R on MCF-7 cells (MCF-7S8, MCF7). The experiment in a line: cell-based or functional assay. This is another data set of the same source.
For assay [10], the target named is T4, Human IGF-1R (HIGF-1R), purified from …. The experiment in a line: cell-based or functional assay. The source holds these as a separate data set.
Assay [11] deals with IGF-1R on L6 cells. The experiment in a line: cell-based or functional assay. This is another data set of the same source.
Target sequence in this assay (P24062 31-737, chain 1 of 2): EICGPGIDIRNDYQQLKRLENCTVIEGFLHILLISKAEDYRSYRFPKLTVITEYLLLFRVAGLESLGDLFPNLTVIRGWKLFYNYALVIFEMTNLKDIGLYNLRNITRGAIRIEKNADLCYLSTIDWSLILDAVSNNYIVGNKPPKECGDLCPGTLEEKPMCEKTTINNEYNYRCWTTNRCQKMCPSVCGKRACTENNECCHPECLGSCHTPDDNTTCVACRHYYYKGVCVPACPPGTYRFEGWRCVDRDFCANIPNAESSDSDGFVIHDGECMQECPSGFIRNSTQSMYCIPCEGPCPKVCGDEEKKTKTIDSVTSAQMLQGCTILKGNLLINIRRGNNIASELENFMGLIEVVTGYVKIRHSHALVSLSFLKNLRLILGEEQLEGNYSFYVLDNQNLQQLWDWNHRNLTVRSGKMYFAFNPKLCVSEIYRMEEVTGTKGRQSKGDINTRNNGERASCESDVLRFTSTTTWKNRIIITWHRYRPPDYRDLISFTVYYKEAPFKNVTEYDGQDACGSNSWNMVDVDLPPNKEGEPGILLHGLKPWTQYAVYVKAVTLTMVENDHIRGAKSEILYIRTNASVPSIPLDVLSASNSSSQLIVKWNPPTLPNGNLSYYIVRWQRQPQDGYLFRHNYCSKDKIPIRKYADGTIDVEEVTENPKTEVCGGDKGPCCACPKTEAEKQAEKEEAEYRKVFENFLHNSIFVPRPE
Target sequence in this assay (P24062 742-1370, chain 2 of 2): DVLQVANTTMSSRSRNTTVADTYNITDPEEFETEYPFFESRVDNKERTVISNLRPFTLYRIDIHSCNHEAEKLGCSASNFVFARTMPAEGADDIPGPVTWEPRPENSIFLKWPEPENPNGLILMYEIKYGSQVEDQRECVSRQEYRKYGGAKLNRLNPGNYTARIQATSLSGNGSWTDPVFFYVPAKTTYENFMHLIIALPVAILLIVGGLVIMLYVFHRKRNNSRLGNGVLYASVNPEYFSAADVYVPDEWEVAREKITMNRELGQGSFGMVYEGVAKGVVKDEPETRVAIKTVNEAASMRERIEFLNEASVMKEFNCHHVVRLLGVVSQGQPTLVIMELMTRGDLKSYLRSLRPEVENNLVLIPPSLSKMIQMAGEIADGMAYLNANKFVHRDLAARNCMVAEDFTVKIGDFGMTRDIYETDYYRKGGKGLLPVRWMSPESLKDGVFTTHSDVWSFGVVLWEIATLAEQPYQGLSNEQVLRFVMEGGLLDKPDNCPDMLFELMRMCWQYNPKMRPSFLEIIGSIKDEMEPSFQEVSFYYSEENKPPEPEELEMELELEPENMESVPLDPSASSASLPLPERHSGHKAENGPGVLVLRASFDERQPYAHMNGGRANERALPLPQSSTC

“And” between values parts separate entries of the source, which are not always exact repeats. Equal entries are not always repeated. Where no end group is shown, it is not given here. [ ]: non-standard residue; d: D form. pGlu = O=C1CC[C@@H](C(=O)O)N1

Chain of IGF-1R on SW480, MCF-7 and MiaPaCa cells (P08069 31-1367): as the sequence (P08069 31-1367 limits assumed) above
T1 sequence (P08069 31-1367): as the sequence (P08069 31-1367 limits assumed) above
T2 sequence (P08069 31-1367 limits assumed): as above
T3 sequence (P08069 31-935): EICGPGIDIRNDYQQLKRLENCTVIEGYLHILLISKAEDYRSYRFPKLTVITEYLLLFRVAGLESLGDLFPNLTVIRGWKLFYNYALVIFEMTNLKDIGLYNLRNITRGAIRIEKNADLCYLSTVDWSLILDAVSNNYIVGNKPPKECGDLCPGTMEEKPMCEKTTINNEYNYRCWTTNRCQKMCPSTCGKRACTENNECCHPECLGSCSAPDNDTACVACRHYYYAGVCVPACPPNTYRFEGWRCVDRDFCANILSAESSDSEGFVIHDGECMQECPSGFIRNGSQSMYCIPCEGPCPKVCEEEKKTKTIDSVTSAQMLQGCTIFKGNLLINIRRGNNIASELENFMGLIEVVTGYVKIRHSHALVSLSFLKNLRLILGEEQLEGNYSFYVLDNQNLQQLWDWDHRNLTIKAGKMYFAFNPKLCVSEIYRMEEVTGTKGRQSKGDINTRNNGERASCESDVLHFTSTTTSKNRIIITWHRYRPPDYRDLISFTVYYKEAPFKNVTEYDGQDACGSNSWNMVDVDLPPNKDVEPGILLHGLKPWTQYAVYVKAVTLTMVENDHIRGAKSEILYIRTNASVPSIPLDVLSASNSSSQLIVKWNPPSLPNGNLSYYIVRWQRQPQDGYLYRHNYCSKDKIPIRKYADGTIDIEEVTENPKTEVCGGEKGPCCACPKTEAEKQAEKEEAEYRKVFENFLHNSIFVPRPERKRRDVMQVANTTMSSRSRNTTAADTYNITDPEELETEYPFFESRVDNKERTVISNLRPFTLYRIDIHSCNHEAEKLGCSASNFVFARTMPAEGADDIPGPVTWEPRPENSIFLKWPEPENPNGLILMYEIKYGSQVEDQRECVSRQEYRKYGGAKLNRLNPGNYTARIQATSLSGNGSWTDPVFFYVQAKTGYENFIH

Regarding SFYSCLESLVTGPAEKSRGQWEGCRK [F292], the “IC50 in MCF-7S8, in presence of IGF-1” value in assay [1] turned out to be 1000 nM. In addition, in the assay with IGF-1R on SW480 cells [2], the “IC50 in SW480 (M) in presence of IGF-1” value turned out to be 1e-07 M and the “IC50 in SW480 (M), peptide alone” value turned out to be 1e-06 M.
Take EGRVDDAFYEWFERQLGE [F213]: the “IC50 in MCF-7S8, in presence of IGF-1” value in [1] was determined as 2000 nM. The “IC50 in SW480 (M) in presence of IGF-1” value with IGF-1R on SW480 cells [2] was 2e-06 M.
Consider SFYSCLESLVNGPAEKSRGQWDGCRK [F250], for which the “IC50 in MCF-7S8, in presence of IGF-1” value in [1] amounted to 2000 nM. Moreover, in the assay with IGF-1R on SW480 cells [2], the “IC50 in SW480 (M) in presence of IGF-1” value is 2e-06 M and 1e-06 M.
SFYSCLESLVQGPAEKSRGQWEGCRK [F293, listing 1 of 2 here]: in the assay with IGF-1R on L6 cells [3], the “IC50, down regulation of 3 nM IGF-1 stimulation to basal level, IGF-IR, L6 cells” value is 500 nM; the “IC50, down regulation of 3 nM IGF-1 stimulation to basal level, IRS-1, L6 cells” value was greater than 1000 nM; the “IC50, down regulation of 3 nM IGF-1 stimulation to basal level, MAPK42, L6 cells” value is 1000 nM; the “IC50, down regulation of 3 nM IGF-1 stimulation to basal level, MAPK44, L6 cells” value came out at 500 nM. In the assay with IGF-1R on L6 cells [3], the “IC50, down regulation of 3 nM IGF-1 stimulation to basal level, PKB/Akt, L6 cells” value was greater than 1000 nM. Moreover, in assay [1], the “IC50 in MCF-7S8, in presence of IGF-1” value was 10000 nM and the “IC50 in MCF-7S8, peptide alone” value was greater than 10000 nM. Further, in the assay with IGF-1R on SW480 cells [2], the “IC50 in SW480 (M), peptide alone” value came to 1e-07 M. Further, in assay [4], the “IC50 in kinase assay (M), IGF-1R kinase activation by 10 nM IGF-1” value (“IC50 in kinase assay (M)” below) amounted to 1e-07 M. In addition, in assay [5], the IC50 (commonly the concentration at which inhibition is half-maximal) was determined as 9 nM.
In the case of DFYGCLLDLSLGVPSLGWRRRCIT (also called Peptide 428) [F428], the “IC50, IGF-1 dependent growth of SW480” value in assay [6] is 500 nM and 1000 nM.
As to EFGRGYGGDGGGYWSGYEWLAE [F207], the “IC50 in MCF-7S8, in presence of IGF-1” value in [1] worked out at 2000 nM. Moreover, the “IC50 in SW480 (M) in presence of IGF-1” value with IGF-1R on SW480 cells [2] was 2e-06 M. Further, in assay [4], the “IC50 in kinase assay (M)” value was 2e-07 M.
With ESFYSCLESLVNGPAEKSRGQWDGCRE [F215], the Kd – broadly, the free concentration of one partner at which half of the binding sites on the other are occupied at equilibrium, for simple one-to-one binding – in [7] lay in the range of 80 to 300 nM.
For RQWDCRGRPCGDAESFYEWFDQQRS [F264], in assay [6], the “IC50, IGF-1 dependent growth in SW480 cells” value was greater than 1000 nM.
In assay [7], FVQDDCRGRPCGDADSFYEWFDQQAGYGSSSRRAPQT [F364] showed a Kd of 50 nM.
As to EDWLRCLGVILSGGLTELANTGCVQGE [F167], the “IC50 in kinase assay (M)” value in assay [4] came to 1e-06 M.
Regarding SFYSCLESLVAGPAEKSRGQWEGCRK [F259, listing 1 of 2 here], the “IC50, IGF-1 (10 nM)-induced proliferation of SW480 cells, exp. 13262-014” value in the assay with IGF-1R on SW480 cells [8] is greater than 10000 nM. Moreover, the “IC50 in MCF-7S8, in presence of IGF-1” value in assay [1] was 5000 nM and 2000 nM. Further, the “IC50 in SW480 (M) in presence of IGF-1” value with IGF-1R on SW480 cells [2] worked out at 2e-06 M.
For TFYSCLASLLTGTPQPNRGPWERCR [RP6], in assay [5], the IC50 turned out to be 2700 nM.
With ESYGDCRDRPCGDAPNFYDWFVQQASE [F270], the “IC50, IGF-1 dependent growth in SW480” value in assay [6] is 2000 nM.
As for EVDRDCQARPCGDAANFYDWFGQQGTE [F269], in the assay with IGF-1R on SW480 cells [2], the “IC50 in SW480 (M) in presence of IGF-1” value was 5e-07 M and the “IC50 in SW480 (M), peptide alone” value is greater than 1e-05 M. The “IC50 in kinase assay (M)” value in [4] amounted to 8e-07 M.
Take QFYGCLLDLSLGVPSFGWKKKCITA [F392]: in [6], the “IC50, IGF-1 dependent growth of SW480” value was 800 nM.
Regarding SFYDCLLDLSIGGPSSDWRRRCITA [F441], in assay [9], the “MCF7 IC50” value was 240 nM and 180 nM.
Turning to [pGlu]FYGCLLDLSLGVPSFGWRRRCITA (cysteine pairing not given here) [F138P], the “IC50, IGF-1 dependent growth in SW480” value in assay [6] came to 500 nM.
QFYGCLLDLSLGVPSFGWRRRCITA [F138] yielded a Kd in assay [7] of 6 to 10 nM. For the same molecule, in assay [6], the “IC50, IGF-1 dependent growth in MCF-7” value came to 500 nM and the “IC50, IGF-1 dependent growth in SW480” value is 150 nM.
The molecule ESFYSCLASLVAGTPWPKGGSWERCREE [F230] showed a Kd in [7] of 20 to 50 nM.
For EFSGFCMGLERLSQVSLGYCGAGQGGE [F169], in assay [1], the “IC50 in MCF-7S8, in presence of IGF-1” value was determined as 2000 nM. The “IC50 in SW480 (M) in presence of IGF-1” value in the assay with IGF-1R on SW480 cells [2] is 2e-06 M.
For the molecule SFYSCLESLVAGPAEKSRGQWEGCRK [F259, listing 2 of 2 here], the “IC50, IGF-1R kinase activation by IGF-1” value in [10] was 200 nM and 300 nM.
For SFYSCLESLVQGPAEKSRGQWEGCRK [F293, listing 2 of 2 here], in [7], the equilibrium dissociation constant (Kd) was 90 nM. Besides, the “IC50, IGF-1 dependent growth in MCF-7 cells” value in assay [6] is 10000 nM. Besides, in the assay with IGF-1R on L6 cells [11], the “IC50, growth of L6 cells stimulated by IGF-1 at 3 nM” value is greater than 10000 nM; the “IC50, phosphorylation of IGF-1R and MAPK42/44 in response to IGF-1 treatment” value was 500 nM.
